Measurements as given in US20250027068A1 (published 2025).
Numbering of substitutions follows the chain as printed.

B1: PRT-209 (enzyme)
chain: MEVVEVWPYGQNPNGKTEILSQTEDSESLQRLRDIEDFQAEKKKQGVVYTKWLDGVDVDDHDFRKIVDGNIAYYATPLLNGKGFYDINKDFNRDSDKCAAAVAANMFHYWLDQNRDNVDRFLRQNPEKHGIIELPDGQLKLSDFLNTYESDNGYRDKSKLFDFISNNFNGPVWTDKLLDNYINGYAYNYKYGRTIEDPTKNTSKINFFKDVFNEKILTNIHSIRNYNTFSNLLSEALYTGKAIGLSYGPAGLRHSLGHIISVWGADLDEDGNVVAIYVTDSDDKKLTIGDERVGLKRYKISTDDEGRARLTAYEENDNTGGEIRGLYTLDTGKQAWADYFDKTEQTGTDQAEQLEHHHHHH
B2: PRT-211 (enzyme)
chain: B1 chain with Y327W
B3: PRT-212 (enzyme)
chain: MEVVEVWPYGQNPNGKTEILSQTEDSESLQRLRDIEDFQAEKKKEGVVYTKWLDGVDVKDHDFRKIVDGNIEYYATPLLNGRGFYDINKDFNQDSDKCAAAVAANMFHYWLDRNRDNVDRFLSQNPEKHGIIELPDGQLKLSDFLNTYESDDGYRDKSKLFDLISNNFNGPVWTDKLLDNYINGYAYNYKYGRTIEDPTKNTSKINFFKEVFNEKILTNIHSIRNQNEFSDKLSEALYTGKAIGLSYGPAGLRHSLGHIISVWGADLDEDGNVVAIYVTDSDDKKLTIGDERVGLKRYKVSTDDEGRLRLTAYEETDNTGGEIRGIWTLDTGKQAWADYFDKTEQTGTDQAEQLEHHHHHH
B4: PRT-210 (enzyme)
chain: MEVVEVWPYGQNPNGKTEILSQTEDSESLQRLRDIEDFQAEKKKQNVVYTKWLDGVTVDDHDFRKITDGNTAYYATPLLNGRGFYDINKDFNRDSDKCAAAVAANMFHYWLDQNRDNVDRFLKQNPEKHGIIELPDGQLKLSDFLNTYESDDGYRDKSKLFDFISNNFNGPVWTDKLLDNYINGYAYNYKYGRTIEDPTKNTSKINFFKEVFNEKLLTNNHSIRNQNEFSDLLSEALYTGKAIGLSYGPAGLRHSLGHIISVWGADFDADGNVVAIYVTDSDDKKLTIGDERVGLKRYKISSDDEGRARLTAYTEKHNTGGQIRGLYTLDTGKQEWADYFDKTEQTGTDQAEQLEHHHHHH
B5: PRT-208 (enzyme)
chain: MEVVEVWPYGQNPNGKTEILSQTEDSESLQRLRDIEDFQAEKKKENVVYTKWLDGVTVKDHDFRKIVDGNIAYYATPLLNGRGFYDINKDFNRDSDKCAAAVAANMFHYWLDINRDNVDRFLRQNPEKHGIIELPDGQLKLSDFLNTYESDDGYRDKSKLFDFISNNFNGPVWTDKLLDNYINGYGYNYKYGRTIEDPTKNTSKINFFKEVFNEKILTDNHSIRDQNEFSDLLSEALYTGKAIGLSYGPAGLRHSLGHIISVWGADLDADGNVVAIYVTDSDDKKLTIGDERVGLKRYKISYDDEGRARLTAYEEKDNTGGQIRGLWTLDTGKQAWADYFDKTEQTGTDQAEQLEHHHHHH
B6: PRT-207 (enzyme)
chain: MEVVEVWPYGQNPNGKTEILSQTEDSESLQRLRDIEDFQAEKKKEGVVYTKWLDGVDVDDHDFRKIVDGNIAYYATPLLNGRGFYDINKDFNRDSDKCAAAVAANMFHYWLDRNRDNVDRFLKQNPEKHGIIELPDGQLKLSDFLNTYESDNGYRDKSKLFDFISNNFNGPVWTDKLLDNYINGYAYNYKYGRTIEDPTKNTSKINFFKEVFNEKILTNNHSIRNYNTFSDLLSEALYTGKAIGLSYGPAGLRHSLGHIISVWGADLDADGNVVAIYVTDSDDKKLTIGDERVGLKRYKVSSDDENRLRLTAYEETHNTGGQIRGIWTLDTGKQAWADYFDKTEQTGTDQAEQLEHHHHHH
B7: PRT-213 (enzyme)
chain: MEVVEVWPYGQNPNGKTEILSQTEDSESLQRLRDIEDFQAEKKKEGVVYTKWLDGVTVKDHDFRKIVDGNIEYYATPLLNGRGWYDINKDFNRDSDKCAAAVAANMFHYWLDRNRDNVDRFLKQNPEKHGIIELPDGQLKLSDFLNTYESDNGYRDKSKLFDFISKNFNGPVWTDKLLDNYINGYGYNYKYGRTIEDPTKNTSKINFFKKVFNEKILTDIHSIRNQNEFSDLLSEALYTGKAIGLSYGPAGLRHSLGHIISVWGADFDEDGNVVAIYVTDSDDKKLTIGDERVGLKRYKVSTDDEGRARLTAYTETDNTGGQVRGLYTLDTGTQAWADYFDKTEQTGTDQAEQLEHHHHHH
B8: PRT-215 (enzyme)
chain: B7 chain with Y327W
B9: PRT-214 (enzyme)
chain: MEVVEVWPYGQNPNGKTEILSQTEDSESLQRLRDIEDFQAEKKKEGVVYTKWLDGVDVDDHDFRKITDGDIEYYATPLLNGRGFYDINKDFNRDSDKCAAAVAANMFHYWLDRNRDNVDRFLKQNPEKHGIIELPDGQLKLSDFLNTYESDYGYRDKSKLFDFISNNFNGPVWTDKLLDNYINGYAYNYKYGRTIEDPTKNTSKINFFKEVFDEKLLTNNHSIRNYNEFSELLREALYTGKAIGLSYGPAGLRHSLGHIISVWGADLDEDGNVVAIYVTDSDDKKLTIGDERVGLKRYKVSSDDENRARLTAYEEKDNTGGEIRGLYTLDTGKQAWADYFDKTEQTGTDQAEQLEHHHHHH

Biological target: pooled human IgG (human)
Assay: cell-based or functional assay
Further: test concentration or dose not given here.

Row | Binder | Enzyme Activity Endpoint Assay (purified): Fab′2 [ng/µL] | Enzyme Activity Endpoint Assay (purified): Fc [ng/µL] | Enzyme Activity Endpoint Assay (purified): IgG [ng/µL] | Enzyme Activity Endpoint Assay (purified): scIgG [ng/µL]
1 | B1 | 0 | 124 | 1670 | 71
2 | B2 | 0 | 68 | 2190 | 0
3 | B3 | 13 | 435 | 1270 | 599
4 | B4 | 0 | 87 | 1780 | 25
5 | B5 | 0 | 153 | 1700 | 113
6 | B6 | 0 | 249 | 1290 | 287
7 | B7 | 0 | 244 | 1290 | 301
8 | B8 | 73 | 310 | 708 | 309
9 | B9 | 467 | 27 | 1650 | 0
